# Experimental data from the supplement of paper PMC12855868.
# B1: library; numbered along this chain (parent)
# chain: MAAAGGARLLRAASAVLGGPAGRWLHHAGSRAGSSGLLRNRGPGGSAEASRSLSVSARARSSSEDKITVHFINRDGETLTTKGKVGDSLLDVVVENNLDIDGFGACEGTLACSTCHLIFEDHIYEKLDAITDEENDMLDLAYGLTDRSRLGCQICLTKSMDNMTVRVPETVADARQSIDVGKTS
# Variants of: B1
# Experiment: scaled log2 fold change in cell abundance, elesclomol vs control (0 = silent mean, 1 = nonsense mean) (scaled log2 ratio); higher = higher viability under elesclomol (loss of FDX1 cuproptosis function)
# Conditions: glucose 10 mM
# Method: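 Deep mutational scan of full-length human FDX1: a pooled saturation-mutagenesis ORF library (every residue 2-184 mutated to all 19 amino acids plus stop, and silent codons where available) was expressed by lentivirus in FDX1-knockout ABC1 (14 days) or HEK293T (11 days) cells grown with elesclomol (ES) or DMSO control. Variant abundance came from ORF sequencing. The log2 fold change (ES vs control, mean of duplicates) was centred on the silent-variant mean (0) and scaled to the nonsense-variant mean (1). Higher values mean greater viability under ES, i.e. loss of FDX1 function in cuproptosis.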
# [1] = with ABC1 FDX1 KO, elesclomol 5 nM, 14 days
# [2] = with HEK293T FDX1 KO, elesclomol 40 nM, 11 days
# 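Note: variant abundance is its share of total variant reads in each endpoint sample, from next-generation sequencing of the integrated ORF PCR-amplified out of genomic DNA.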
variant,measurement,setting,value
S34G,scaled log2 fold change,[1],0.285
same,scaled log2 fold change,[2],-0.277
S34N,scaled log2 fold change,[1],0.0794
same,scaled log2 fold change,[2],0.424
S34L,scaled log2 fold change,[1],0.0704
same,scaled log2 fold change,[2],-0.513
S34P,scaled log2 fold change,[1],-0.325
same,scaled log2 fold change,[2],-0.116
S34R,scaled log2 fold change,[1],-0.433
same,scaled log2 fold change,[2],0.662
S34T,scaled log2 fold change,[1],0.125
same,scaled log2 fold change,[2],-0.0688
S34K,scaled log2 fold change,[1],0.146
same,scaled log2 fold change,[2],-0.467
S34Y,scaled log2 fold change,[1],0.029
same,scaled log2 fold change,[2],-0.188
S34Q,scaled log2 fold change,[1],-0.0397
same,scaled log2 fold change,[2],-0.168
S34M,scaled log2 fold change,[1],-0.108
same,scaled log2 fold change,[2],0.216
S34I,scaled log2 fold change,[1],-0.128
same,scaled log2 fold change,[2],-0.488
S34A,scaled log2 fold change,[1],-0.221
same,scaled log2 fold change,[2],-0.449
S34F,scaled log2 fold change,[1],0.0028
same,scaled log2 fold change,[2],-0.301
S34C,scaled log2 fold change,[1],0.0357
same,scaled log2 fold change,[2],0.188
S34W,scaled log2 fold change,[1],0.0117
same,scaled log2 fold change,[2],0.853
S34H,scaled log2 fold change,[1],0.251
same,scaled log2 fold change,[2],-0.957
S34D,scaled log2 fold change,[1],0.0928
same,scaled log2 fold change,[2],-0.389
L25H,scaled log2 fold change,[1],0.124
same,scaled log2 fold change,[2],-0.423
L25C,scaled log2 fold change,[1],0.238
same,scaled log2 fold change,[2],0.0546
L25W,scaled log2 fold change,[1],0.28
same,scaled log2 fold change,[2],0.019
L25E,scaled log2 fold change,[1],-0.135
same,scaled log2 fold change,[2],-0.0782
L25M,scaled log2 fold change,[1],0.607
same,scaled log2 fold change,[2],1.17
L25K,scaled log2 fold change,[1],0.14
same,scaled log2 fold change,[2],1.29
L25T,scaled log2 fold change,[1],0.536
L25A,scaled log2 fold change,[1],-0.505
L25Y,scaled log2 fold change,[1],0.423
same,scaled log2 fold change,[2],0.926
L25R,scaled log2 fold change,[1],0.126
same,scaled log2 fold change,[2],0.222
L25P,scaled log2 fold change,[1],0.318
same,scaled log2 fold change,[2],1.23
L25V,scaled log2 fold change,[1],0.553
L25G,scaled log2 fold change,[1],-0.623
L25D,scaled log2 fold change,[1],-0.703
L25S,scaled log2 fold change,[1],0.221
L25Q,scaled log2 fold change,[1],-0.0213
same,scaled log2 fold change,[2],-1.08
L25N,scaled log2 fold change,[1],-0.498
G36R,scaled log2 fold change,[1],-0.252
same,scaled log2 fold change,[2],0.0429
G36I,scaled log2 fold change,[1],0.0053
same,scaled log2 fold change,[2],-0.456
G36F,scaled log2 fold change,[1],-0.16
same,scaled log2 fold change,[2],-0.239
G36S,scaled log2 fold change,[1],0.168
same,scaled log2 fold change,[2],-0.0207
G36T,scaled log2 fold change,[1],0.266
same,scaled log2 fold change,[2],0.704
G36H,scaled log2 fold change,[1],0.443
same,scaled log2 fold change,[2],-1.19
G36M,scaled log2 fold change,[1],0.149
same,scaled log2 fold change,[2],-0.00494
G36D,scaled log2 fold change,[1],-0.0689
same,scaled log2 fold change,[2],0.737
G36Y,scaled log2 fold change,[1],0.0493
same,scaled log2 fold change,[2],-0.0699
G36C,scaled log2 fold change,[1],-0.121
same,scaled log2 fold change,[2],0.501
G36K,scaled log2 fold change,[1],-0.118
same,scaled log2 fold change,[2],-0.253
G36L,scaled log2 fold change,[1],0.19
same,scaled log2 fold change,[2],0.873
G36E,scaled log2 fold change,[1],0.292
same,scaled log2 fold change,[2],0.257
G36N,scaled log2 fold change,[1],0.0293
same,scaled log2 fold change,[2],0.187
G36W,scaled log2 fold change,[1],-0.615
same,scaled log2 fold change,[2],1.33
G36Q,scaled log2 fold change,[1],-0.138
same,scaled log2 fold change,[2],0.311
G36V,scaled log2 fold change,[1],-0.491
same,scaled log2 fold change,[2],-0.262
A32V,scaled log2 fold change,[1],-0.114
A32S,scaled log2 fold change,[1],0.0206
same,scaled log2 fold change,[2],-0.496
A32D,scaled log2 fold change,[1],0.119
A32Y,scaled log2 fold change,[1],0.0969
same,scaled log2 fold change,[2],0.822
A32F,scaled log2 fold change,[1],0.304
same,scaled log2 fold change,[2],0.033
A32E,scaled log2 fold change,[1],0.295
same,scaled log2 fold change,[2],-0.00588
A32R,scaled log2 fold change,[1],0.589
same,scaled log2 fold change,[2],1.44
A32W,scaled log2 fold change,[1],-0.684
A32G,scaled log2 fold change,[1],0.242
same,scaled log2 fold change,[2],-0.0456
A32C,scaled log2 fold change,[1],-0.309
same,scaled log2 fold change,[2],-1.08
A32I,scaled log2 fold change,[1],0.101
same,scaled log2 fold change,[2],0.722
A32H,scaled log2 fold change,[1],-0.58
same,scaled log2 fold change,[2],-0.0637
A32Q,scaled log2 fold change,[1],0.0849
same,scaled log2 fold change,[2],-0.338
A32T,scaled log2 fold change,[1],-0.266
A32P,scaled log2 fold change,[1],0.626
A32N,scaled log2 fold change,[1],-0.064
same,scaled log2 fold change,[2],-0.0431
S35L,scaled log2 fold change,[1],-0.141
same,scaled log2 fold change,[2],-0.673
S35N,scaled log2 fold change,[1],0.181
same,scaled log2 fold change,[2],-0.653
S35E,scaled log2 fold change,[1],-0.0617
same,scaled log2 fold change,[2],-0.644
S35Y,scaled log2 fold change,[1],-0.531
same,scaled log2 fold change,[2],-0.958
S35M,scaled log2 fold change,[1],0.309
same,scaled log2 fold change,[2],0.0177
S35H,scaled log2 fold change,[1],-0.513
same,scaled log2 fold change,[2],1.67
S35W,scaled log2 fold change,[1],-0.0127
same,scaled log2 fold change,[2],-0.259
S35Q,scaled log2 fold change,[1],0.169
same,scaled log2 fold change,[2],0.0163
S35G,scaled log2 fold change,[1],-0.212
same,scaled log2 fold change,[2],-1.33
S35D,scaled log2 fold change,[1],0.267
same,scaled log2 fold change,[2],1.13
S35P,scaled log2 fold change,[1],-0.144
S35R,scaled log2 fold change,[1],-0.768
same,scaled log2 fold change,[2],-0.669
S35A,scaled log2 fold change,[1],-0.0215
same,scaled log2 fold change,[2],0.327
S35I,scaled log2 fold change,[1],0.293
same,scaled log2 fold change,[2],0.132
S35V,scaled log2 fold change,[1],0.123
same,scaled log2 fold change,[2],-0.55
S35C,scaled log2 fold change,[1],0.0457
same,scaled log2 fold change,[2],0.128
S35K,scaled log2 fold change,[1],0.175
same,scaled log2 fold change,[2],0.17
S35F,scaled log2 fold change,[1],-0.398
same,scaled log2 fold change,[2],0.53
S35T,scaled log2 fold change,[1],-0.263
same,scaled log2 fold change,[2],0.526
H26K,scaled log2 fold change,[1],0.352
H26R,scaled log2 fold change,[1],-0.169
same,scaled log2 fold change,[2],-0.571
H26G,scaled log2 fold change,[1],-0.196
same,scaled log2 fold change,[2],-0.699
H26P,scaled log2 fold change,[1],-0.00391
H26S,scaled log2 fold change,[1],0.241
H26N,scaled log2 fold change,[1],0.169
same,scaled log2 fold change,[2],-0.198
H26F,scaled log2 fold change,[1],0.206
same,scaled log2 fold change,[2],-0.237
H26W,scaled log2 fold change,[1],0.101
same,scaled log2 fold change,[2],-0.281
H26Q,scaled log2 fold change,[1],0.0786
same,scaled log2 fold change,[2],1.39
H26M,scaled log2 fold change,[1],0.23
H26E,scaled log2 fold change,[1],0.356
same,scaled log2 fold change,[2],0.955
H26C,scaled log2 fold change,[1],-0.0138
H26D,scaled log2 fold change,[1],0.267
same,scaled log2 fold change,[2],0.193
H26T,scaled log2 fold change,[1],0.206
same,scaled log2 fold change,[2],0.037
H26L,scaled log2 fold change,[1],0.346
same,scaled log2 fold change,[2],0.304
H26Y,scaled log2 fold change,[1],0.147
same,scaled log2 fold change,[2],-0.00505
H26A,scaled log2 fold change,[1],0.684
same,scaled log2 fold change,[2],1.75
W24V,scaled log2 fold change,[1],0.155
same,scaled log2 fold change,[2],-0.39
W24R,scaled log2 fold change,[1],-0.838
same,scaled log2 fold change,[2],-0.244
L37R,scaled log2 fold change,[1],-0.0271
same,scaled log2 fold change,[2],0.0954
L37W,scaled log2 fold change,[1],0.235
same,scaled log2 fold change,[2],-0.0987
L37C,scaled log2 fold change,[1],-0.0306
L37S,scaled log2 fold change,[1],0.557
same,scaled log2 fold change,[2],-0.131
L37P,scaled log2 fold change,[1],0.51
same,scaled log2 fold change,[2],1.09
L37T,scaled log2 fold change,[1],0.382
same,scaled log2 fold change,[2],0.567
L37Q,scaled log2 fold change,[1],-0.0502
same,scaled log2 fold change,[2],-0.659
L37H,scaled log2 fold change,[1],-0.125
same,scaled log2 fold change,[2],-0.331
L37D,scaled log2 fold change,[1],-0.0765
same,scaled log2 fold change,[2],-0.369
L37G,scaled log2 fold change,[1],0.613
same,scaled log2 fold change,[2],-0.248
L37V,scaled log2 fold change,[1],0.412
L37M,scaled log2 fold change,[1],0.0458
same,scaled log2 fold change,[2],0.0807
L37F,scaled log2 fold change,[1],0.0336
same,scaled log2 fold change,[2],0.00175
L37E,scaled log2 fold change,[1],-0.0101
same,scaled log2 fold change,[2],-0.121
L37K,scaled log2 fold change,[1],0.0656
same,scaled log2 fold change,[2],-0.805
L37Y,scaled log2 fold change,[1],0.353
same,scaled log2 fold change,[2],0.0859
